PMC13598120

B1: Flag-tagged GNL3 (Flag-GNL3), wild type [human] / RAD51, endogenous [human (endogenous in U2OS and HeLa)] (parent)
chain 1: MKRPKLKKASKRMTCHKRYKIQKKVREHHRKLRKEAKKRGHKKPRKDPGVPNSAPFKEALLREAELRKQRLEELKQQQKLDRQKELEKKRKLETNPDIKPSNVEPMEKEFGLCKTENKAKSGKQNSKKLYCQELKKVIEASDVVLEVLDARDPLGCRCPQVEEAIVQSGQKKLVLILNKSDLVPKENLESWLNYLKKELPTVVFRASTKPKDKGKITKRVKAKKNAAPFRSEVCFGKEGLWKLLGGFQETCSKAIRVGVIGFPNVGKSSIINSLKQEQMCNVGVSMGLTRSMQVVPLDKQITIIDSPSFIVSPLNSSSALALRSPASIEVVKPMEAASAILSQADARQVVLKYTVPGYRNSLEFFTVLAQRRGMHQKGGIPNVEGAAKLLWSEWTGASLAYYCHPPTSWTPPPYFNESIVVDMKSGFNLEELEKNNAQSIRAIKGPHLANSILFQSSGLTNGIIEEKDIHEELPKRKERKQEEREDDKDSDQETVDEEVDENSSGMFAAEETGEALSEETTAGEQSTRSFILDKIIEEDDAYDFSTDYV
chain 2: MAMQMQLEANADTSVEEESFGPQPISRLEQCGINANDVKKLEEAGFHTVEAVAYAPKKELINIKGISEAKADKILAEAAKLVPMGFTTATEFHQRRSEIIQITTGSKELDKLLQGGIETGSITEMFGEFRTGKTQICHTLAVTCQLPIDRGGGEGKAMYIDTEGTFRPERLLAVAERYGLSGSDVLDNVAYARAFNTDHQTQLLYQASAMMVESRYALLIVDSATALYRTDYSGRGELSARQMHLARFLRMLLRLADEFGVAVVITNQVVAQVDGAAMFAADPKKPIGGNIIAHASTTRLYLRKGRGETRICKIYDSPCLPEAEAMFAINADGVGDAKD

Variants of: B1
Experiment: co-IP (anti-Flag IP, IB RAD51, band quantification)
Conditions: with RAD51, endogenous [human (endogenous in U2OS and HeLa)]; U2OS cells; 20 μM ETO, 0 h; read off a plot

Row | response (relative level) | Variant
1 | 0.17 | chain 1 MKRPKLKKASKRMTCHKRYKIQKKVREHHRKLRKEAKKRGHKKPRKDPGVPNSAPFKEALLREAELRKQRLEELKQQQKLDRQKELEKKRKLETNPDIKPSNVEPMEKEFGLCKTENKAKSGKQNSKKLYCQELKKVIEASDVVLEVLDARDPLGCRCPQVEEAIVQSGQKKLVLILNKSDLVPKENLESWLNYLRKELPTVVFRASTKPKDKGKITKRVKAKKNAAPFRSEVCFGKEGLWKLLGGFQETCSKAIRVGVIGFPNVGKSSIINSLKQEQMCNVGVSMGLTRSMQVVPLDKQITIIDSPSFIVSPLNSSSALALRSPASIEVVKPMEAASAILSQADARQVVLKYTVPGYRNSLEFFTVLAQRRGMHQKGGIPNVEGAAKLLWSEWTGASLAYYCHPPTSWTPPPYFNESIVVDMKSGFNLEELEKNNAQSIRAIKGPHLANSILFQSSGLTNGIIEEKDIHEELPKRKERKQEEREDDKDSDQETVDEEVDENSSGMFAAEETGEALSEETTAGEQSTRSFILDKIIEEDDAYDFSTDYV [chain 1 K196R]

Same assay, conditions: with RAD51, endogenous [human (endogenous in U2OS and HeLa)]; U2OS cells; 20 μM ETO, 2 h; read off a plot

Row | response (relative level) | Variant
2 | 0.52 | chain 1 MKRPKLKKASKRMTCHKRYKIQKKVREHHRKLRKEAKKRGHKKPRKDPGVPNSAPFKEALLREAELRKQRLEELKQQQKLDRQKELEKKRKLETNPDIKPSNVEPMEKEFGLCKTENKAKSGKQNSKKLYCQELKKVIEASDVVLEVLDARDPLGCRCPQVEEAIVQSGQKKLVLILNKSDLVPKENLESWLNYLRKELPTVVFRASTKPKDKGKITKRVKAKKNAAPFRSEVCFGKEGLWKLLGGFQETCSKAIRVGVIGFPNVGKSSIINSLKQEQMCNVGVSMGLTRSMQVVPLDKQITIIDSPSFIVSPLNSSSALALRSPASIEVVKPMEAASAILSQADARQVVLKYTVPGYRNSLEFFTVLAQRRGMHQKGGIPNVEGAAKLLWSEWTGASLAYYCHPPTSWTPPPYFNESIVVDMKSGFNLEELEKNNAQSIRAIKGPHLANSILFQSSGLTNGIIEEKDIHEELPKRKERKQEEREDDKDSDQETVDEEVDENSSGMFAAEETGEALSEETTAGEQSTRSFILDKIIEEDDAYDFSTDYV [chain 1 K196R]

Same assay, conditions: with RAD51, endogenous [human (endogenous in U2OS and HeLa)]; U2OS cells; 20 μM ETO, 8 h; read off a plot

Row | response (relative level) | Variant
3 | 0.31 | chain 1 MKRPKLKKASKRMTCHKRYKIQKKVREHHRKLRKEAKKRGHKKPRKDPGVPNSAPFKEALLREAELRKQRLEELKQQQKLDRQKELEKKRKLETNPDIKPSNVEPMEKEFGLCKTENKAKSGKQNSKKLYCQELKKVIEASDVVLEVLDARDPLGCRCPQVEEAIVQSGQKKLVLILNKSDLVPKENLESWLNYLRKELPTVVFRASTKPKDKGKITKRVKAKKNAAPFRSEVCFGKEGLWKLLGGFQETCSKAIRVGVIGFPNVGKSSIINSLKQEQMCNVGVSMGLTRSMQVVPLDKQITIIDSPSFIVSPLNSSSALALRSPASIEVVKPMEAASAILSQADARQVVLKYTVPGYRNSLEFFTVLAQRRGMHQKGGIPNVEGAAKLLWSEWTGASLAYYCHPPTSWTPPPYFNESIVVDMKSGFNLEELEKNNAQSIRAIKGPHLANSILFQSSGLTNGIIEEKDIHEELPKRKERKQEEREDDKDSDQETVDEEVDENSSGMFAAEETGEALSEETTAGEQSTRSFILDKIIEEDDAYDFSTDYV [chain 1 K196R]
